The supplement of paper PMC7125110
± gives the standard error. This sample holds only a part of the variants without activity.

B1: glmS ribozyme (parent)
chain: AUAAAAGCGCCAGAACUACAGAAAUGUAGUUGACGAGGAGGAGGUUUAUCGAAUUUUCGGCGGAUGCCUCCAAA

Columns and labels:
Settings in all cases: with glucosamine-6-phosphate
glucosamine-6-phosphate [1] = variants of: B1; assay: self-cleavage kobs at 160 uM GlcN6P; higher = faster cleavage; RNA array
Method in brief: (§1)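 E. coli RNA polymerase transcribed barcoded ribozyme variants in situ on sequenced MiSeq chips, which were tracked via a hybridised Cy3 probe at 37 °C. Tiles were imaged over ~14 h after glucosamine-6-phosphate (40 μM to 10 mM) in HEPES/KCl/Mg(OAc)2 buffer was flowed in. Normalised per-tile medians were fit to one- or two-exponential decays for kobs, and kcat and KM came from weighted Michaelis–Menten fits.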

glucosamine-6-phosphate [2] = variants of: B1; assay: self-cleavage kobs at 640 uM GlcN6P; higher = faster cleavage; RNA array
Method in brief: as §1

glucosamine-6-phosphate [3] = variants of: B1; assay: self-cleavage kobs at 10000 uM GlcN6P; higher = faster cleavage; RNA array
Method in brief: as §1

glucosamine-6-phosphate [4] = variants of: B1; assay: self-cleavage kobs at 2500 uM GlcN6P; higher = faster cleavage; RNA array
Method in brief: as §1

Variant | self-cleavage kobs at 160 uM GlcN6P (glucosamine-6-phosphate [1]) | self-cleavage kobs at 640 uM GlcN6P (glucosamine-6-phosphate [2]) | self-cleavage kobs at 10000 uM GlcN6P (glucosamine-6-phosphate [3]) | self-cleavage kobs at 2500 uM GlcN6P (glucosamine-6-phosphate [4])
G13A A33C | < 1e-05 s⁻¹ | < 1e-05 s⁻¹ | < 1e-05 s⁻¹ | 
C10A G32C G38C | < 1e-05 s⁻¹ |  |  | < 1e-05 s⁻¹
A12U U46C C67A | 0.00011 ± 2.6e-05 s⁻¹ |  |  | 0.00113 ± 0.0002 s⁻¹
C8U A36U G40C U56A | < 1e-05 s⁻¹ |  |  | < 1e-05 s⁻¹
A12U C58A G60U | < 1e-05 s⁻¹ | < 1e-05 s⁻¹ |  | 
G9A U46G U57A | < 1e-05 s⁻¹ | < 1e-05 s⁻¹ |  | < 1e-05 s⁻¹
C8A G35C G62U | < 1e-05 s⁻¹ | < 1e-05 s⁻¹ |  | < 1e-05 s⁻¹
C8A G13A G43U G51U | < 1e-05 s⁻¹ |  |  | < 1e-05 s⁻¹
G13U G21U G37C | < 1e-05 s⁻¹ |  |  | 
C11G U46G G62A | < 1e-05 s⁻¹ | < 1e-05 s⁻¹ | < 1e-05 s⁻¹ | < 1e-05 s⁻¹
A12U U56G G66C | 0.000132 ± 3.1e-05 s⁻¹ | 0.000374 ± 9e-05 s⁻¹ |  | 0.000708 ± 0.00017 s⁻¹
G9C A64C | < 1e-05 s⁻¹ | < 1e-05 s⁻¹ | < 1e-05 s⁻¹ | 
G9C A39C | < 1e-05 s⁻¹ | < 1e-05 s⁻¹ | < 1e-05 s⁻¹ | < 1e-05 s⁻¹
A12C A36G U69C | < 1e-05 s⁻¹ |  |  | 
A12U U30C | 0.000652 ± 0.00019 s⁻¹ | 0.00125 ± 0.00032 s⁻¹ |  | 0.0109 ± 0.0027 s⁻¹
C8U U31G G44U C71G | < 1e-05 s⁻¹ | < 1e-05 s⁻¹ |  | 
C10A U54G C71G | 9.72e-05 ± 3.2e-05 s⁻¹ | 0.000112 ± 5.5e-05 s⁻¹ |  | 
A12U A14C C71U | 0.000143 ± 4.4e-05 s⁻¹ |  |  | 0.00169 ± 0.00033 s⁻¹
A12G G40A A42C | < 1e-05 s⁻¹ |  |  | < 1e-05 s⁻¹
C10U G37A G63A | < 1e-05 s⁻¹ | < 1e-05 s⁻¹ |  | < 1e-05 s⁻¹
G9A C11U C16U G63A U65G C68G | 4.96e-05 ± 1.6e-05 s⁻¹ | 7.82e-05 ± 1.8e-05 s⁻¹ |  | 3.97e-05 ± 1.5e-05 s⁻¹
C8G G37A | < 1e-05 s⁻¹ | < 1e-05 s⁻¹ |  | < 1e-05 s⁻¹
C10U C50G C68U C70G | 0.000109 ± 4e-05 s⁻¹ |  |  | 
C10G G32U U69G | < 1e-05 s⁻¹ |  |  | 
C8G G13A U54A G62A | < 1e-05 s⁻¹ | < 1e-05 s⁻¹ |  | 
G9C G29A G51U | < 1e-05 s⁻¹ | < 1e-05 s⁻¹ |  | < 1e-05 s⁻¹
C8U U49C | < 1e-05 s⁻¹ | < 1e-05 s⁻¹ | < 1e-05 s⁻¹ | < 1e-05 s⁻¹

Variant | self-cleavage kobs at 160 uM GlcN6P (glucosamine-6-phosphate [1]) | self-cleavage kobs at 640 uM GlcN6P (glucosamine-6-phosphate [2]) | self-cleavage kobs at 10000 uM GlcN6P (glucosamine-6-phosphate [3]) | self-cleavage kobs at 2500 uM GlcN6P (glucosamine-6-phosphate [4])
G9C C34G C61G | < 1e-05 s⁻¹ |  | < 1e-05 s⁻¹ | < 1e-05 s⁻¹
G13U G29A G66C | < 1e-05 s⁻¹ |  |  | 
C8G C11G U54A | < 1e-05 s⁻¹ |  |  | < 1e-05 s⁻¹
C10G A12U U31A A33U G63A | < 1e-05 s⁻¹ |  |  | 
G9U C16G G32U G38A A42G | < 1e-05 s⁻¹ |  |  | 
G9A C61G | < 1e-05 s⁻¹ | < 1e-05 s⁻¹ |  | 
C11G A33U C34A G41A U54A | < 1e-05 s⁻¹ | < 1e-05 s⁻¹ |  | < 1e-05 s⁻¹
A12U C16U U54A | 0.00397 ± 0.00072 s⁻¹ | 0.00766 ± 0.0025 s⁻¹ |  | 
C8G G60A C61A | < 1e-05 s⁻¹ |  | < 1e-05 s⁻¹ | < 1e-05 s⁻¹
C10U U56A G62A U65A U69G | 3.94e-05 ± 1.6e-05 s⁻¹ |  |  | 
G9C G38C | < 1e-05 s⁻¹ |  |  | 
C8U C16G G51U | < 1e-05 s⁻¹ | < 1e-05 s⁻¹ |  | < 1e-05 s⁻¹
C10A A14U A52U C70G | 0.00038 ± 0.00011 s⁻¹ | 0.000294 ± 7.4e-05 s⁻¹ |  | 8.93e-05 ± 3.8e-05 s⁻¹
A12U A14C U47A | 0.000117 ± 2.3e-05 s⁻¹ | 0.000593 ± 0.00011 s⁻¹ |  | 0.00107 ± 0.00025 s⁻¹
G13A G35A G41U C68U | < 1e-05 s⁻¹ | < 1e-05 s⁻¹ |  | < 1e-05 s⁻¹
C8U G59U G63C | < 1e-05 s⁻¹ | < 1e-05 s⁻¹ |  | < 1e-05 s⁻¹
C8U G13U G43A C61G | < 1e-05 s⁻¹ |  |  | 
C10A C34G A36G A39C U65A | < 1e-05 s⁻¹ |  |  | < 1e-05 s⁻¹
C8G U46C A53C | < 1e-05 s⁻¹ |  |  | < 1e-05 s⁻¹
G9C U30G U45A | < 1e-05 s⁻¹ |  |  | 
A12C U31G U47A | 0.000155 ± 5.6e-05 s⁻¹ | 0.000707 ± 0.00032 s⁻¹ |  | 
A12U G29A A53G G62A | < 1e-05 s⁻¹ | < 1e-05 s⁻¹ |  | < 1e-05 s⁻¹
A12G G38U A52U A64U | < 1e-05 s⁻¹ | < 1e-05 s⁻¹ |  | < 1e-05 s⁻¹
G9U U30G G35U G51A | < 1e-05 s⁻¹ | < 1e-05 s⁻¹ |  | 
G9C G32U A39U G41U | < 1e-05 s⁻¹ | < 1e-05 s⁻¹ |  | < 1e-05 s⁻¹
C11U G29U G40A | < 1e-05 s⁻¹ | < 1e-05 s⁻¹ | 5.39e-05 ± 1.7e-05 s⁻¹ | 
C11G A36C U55A | < 1e-05 s⁻¹ |  |  | 
